Data: article PMC9800282 (2022)

Target: T1, VTN (vitronectin) (Homo sapiens (Human), UniProt P04004)
T1 chain: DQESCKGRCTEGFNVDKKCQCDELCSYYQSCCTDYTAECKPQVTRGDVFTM
Experiment: SPR; Mg2+/Ca2+/Mn2+ buffer, 37 °C 1 mM MgCl2, 1 mM CaCl2, 2 mM MnCl2 in SPR buffer

B1: integrin αvβ3 (rhαvβ3) (protein)
chain 1: FNLDVDSPAEYSGPEGSYFGFAVDFFVPSASSRMFLLVGAPKANTTQPGIVEGGQVLKCDWSSTRRCQPIEFDATGNRDYAKDDPLEFKSHQWFGASVRSKQDKILACAPLYHWRTEMKQEREPVGTCFLQDGTKTVEYAPCRSQDIDADGQGFCQGGFSIDFTKADRVLLGGPGSFYWQGQLISDQVAEIVSKYDPNVYSIKYNNQLATRTAQAIFDDSYLGYSVAVGDFNGDGIDDFVSGVPRAARTLGMVYIYDGKNMSSLYNFTGEQMAAYFGFSVAATDINGDDYADVFIGAPLFMDRGSDGKLQEVGQVSVSLQRASGDFQTTKLNGFEVFARFGSAIAPLGDLDQDGFNDIAIAAPYGGEDKKGIVYIFNGRSTGLNAVPSQILEGQWAARSMPPSFGYSMKGATDIDKNGYPDLIVGAFGVDRAILYRARPVITVNAGLEVYPS
chain 2: GPNICTTRGVSSCQQCLAVSPMCAWCSDEALPLGSPRCDLKENLLKDNCAPESIEFPVSEARVLEDRPLSDKGSGDSSQVTQVSPQRIALRLRPDDSKNFSIQVRQVEDYPVDIYYLMDLSYSMKDDLWSIQNLGTKLATQMRKLTSNLRIGFGAFVDKPVSPYMYISPPEALENPCYDMKTTCLPMFGYKHVLTLTDQVTRFNEEVKKQSVSRNRDAPEGGFDAIMQATVCDEKIGWRNDASHLLVFTTDAKTHIALDGRLAGIVQPNDGQCHVGSDNHYSASTTMDYPSLGLMTEKLSQKNINLIFAVTENVVNLYQNYSELIPGTTVGVLSMDSSNVLQLIVDAYGKIRSKVELEVRDLPEELSLSFNATCLNNEVIPGLKSCMGLKIGDTVSFSIEAKVRGCPQEKEKSFTIKPVGFKDSLIVQVTFDCDCA
A Kd of 997 nM was found for B1 in this work.
